Experiment [1] has as its target glucagon-like peptide-2 (GLP-2) receptor.
The target in experiment [2] is glucagon-like peptide-1 (GLP-1) receptor.

Starred links: 1 amine or outer side, 2 acyl side, 3 side chain; linkers in the order of their positions; H or OH if unused. Non-standard residues stand in square brackets, D forms with d. Groups on a side chain read outwards from the residue. No end group written: not given here. *: point of attachment. C18 diacid = O=C(O)CCCCCCCCCCCCCCCCC(=O)*; γGlu = O=C(O)[C@H](CCC(=O)[*:2])N[*:1]; AEEA = NCCOCCOCC(=O)O; Aib = CC(C)(N)C(=O)O

B1: Compound 3 (peptide)
peptide: H[Aib]EGSFTSELATILDK([AEEA-γGlu-C18 diacid])QAARDFIAWLIQHKITD-NH2
modifications: N-terminus assumed
SMILES: CC[C@H](C)[C@H](NC(=O)[C@H](Cc1ccccc1)NC(=O)[C@H](CC(=O)O)NC(=O)[C@H](CCCNC(=N)N)NC(=O)[C@H](C)NC(=O)[C@H](C)NC(=O)[C@H](CCC(N)=O)NC(=O)[C@H](CCCCNC(=O)COCCOCCNC(=O)CC[C@H](NC(=O)CCCCCCCCCCCCCCCCC(=O)O)C(=O)O)NC(=O)[C@H](CC(=O)O)NC(=O)[C@H](CC(C)C)NC(=O)[C@@H](NC(=O)[C@@H](NC(=O)[C@H](C)NC(=O)[C@H](CC(C)C)NC(=O)[C@H](CCC(=O)O)NC(=O)[C@H](CO)NC(=O)[C@@H](NC(=O)[C@H](Cc1ccccc1)NC(=O)[C@H](CO)NC(=O)CNC(=O)[C@H](CCC(=O)O)NC(=O)C(C)(C)NC(=O)[C@@H](N)Cc1c[nH]cn1)[C@@H](C)O)[C@@H](C)O)[C@@H](C)CC)C(=O)N[C@@H](C)C(=O)N[C@@H](Cc1c[nH]c2ccccc12)C(=O)N[C@@H](CC(C)C)C(=O)N[C@H](C(=O)N[C@@H](CCC(N)=O)C(=O)N[C@@H](Cc1c[nH]cn1)C(=O)N[C@@H](CCCCN)C(=O)N[C@H](C(=O)N[C@H](C(=O)N[C@@H](CC(=O)O)C(N)=O)[C@@H](C)O)[C@@H](C)CC)[C@@H](C)CC
In turn, B1 came in with a GLP-2 activity [EC50 (nmol)] in experiment [1] of 4.7 nmol. Further, the GLP-1 activity [EC50 (pmol)] in experiment [2] amounted to 60.1 pmol.

The molecule H[Aib]EGSFTSELATILDK([PEG3CH2CO-γGlu-C18 diacid])QAARDFIAWLIQHKITD-NH2 [Compound 4] displayed a GLP-2 activity [EC50 (nmol)] in experiment [1] of 4.33 nmol. Further, the GLP-1 activity [EC50 (pmol)] in experiment [2] turned out to be 60 pmol.

On to H[Aib]EGSFTSELATILDK([PEG4CH2CO-γGlu-C18 diacid])QAARDFIAWLIQHKITD-NH2 [Compound 5], for which, in experiment [1], the GLP-2 activity [EC50 (nmol)] stood at 5.54 nmol. In addition, in experiment [2], the GLP-1 activity [EC50 (pmol)] came to 72.8 pmol.

For H[Aib]EGSFTSELATILDK([PEG5CH2CO-γGlu-C18 diacid])QAARDFIAWLIQHKITD-NH2 [Compound 6], the GLP-2 activity [EC50 (nmol)] in experiment [1] is 4.62 nmol. The same molecule displayed a GLP-1 activity [EC50 (pmol)] in experiment [2] of 79.5 pmol.

The molecule H[Aib]EGSFTSELATILDK([PEG1CH2CO-γGlu-C18 diacid])QAARDFIAWLIQHKITD-NH2 [Compound 2] registered a GLP-2 activity [EC50 (nmol)] in experiment [1] of 5.51 nmol. Moreover, the GLP-1 activity [EC50 (pmol)] in experiment [2] stood at 68.7 pmol.

B2: Compound 1 (peptide)
peptide: H[Aib]EGSFTSELATILDK([γGlu-C18 diacid])QAARDFIAWLIQHKITD-NH2
modifications: N-terminus assumed
SMILES: CC[C@H](C)[C@H](NC(=O)[C@H](Cc1ccccc1)NC(=O)[C@H](CC(=O)O)NC(=O)[C@H](CCCNC(=N)N)NC(=O)[C@H](C)NC(=O)[C@H](C)NC(=O)[C@H](CCC(N)=O)NC(=O)[C@H](CCCCNC(=O)CC[C@H](NC(=O)CCCCCCCCCCCCCCCCC(=O)O)C(=O)O)NC(=O)[C@H](CC(=O)O)NC(=O)[C@H](CC(C)C)NC(=O)[C@@H](NC(=O)[C@@H](NC(=O)[C@H](C)NC(=O)[C@H](CC(C)C)NC(=O)[C@H](CCC(=O)O)NC(=O)[C@H](CO)NC(=O)[C@@H](NC(=O)[C@H](Cc1ccccc1)NC(=O)[C@H](CO)NC(=O)CNC(=O)[C@H](CCC(=O)O)NC(=O)C(C)(C)NC(=O)[C@@H](N)Cc1c[nH]cn1)[C@@H](C)O)[C@@H](C)O)[C@@H](C)CC)C(=O)N[C@@H](C)C(=O)N[C@@H](Cc1c[nH]c2ccccc12)C(=O)N[C@@H](CC(C)C)C(=O)N[C@H](C(=O)N[C@@H](CCC(N)=O)C(=O)N[C@@H](Cc1c[nH]cn1)C(=O)N[C@@H](CCCCN)C(=O)N[C@H](C(=O)N[C@H](C(=O)N[C@@H](CC(=O)O)C(N)=O)[C@@H](C)O)[C@@H](C)CC)[C@@H](C)CC
The molecule B2 displayed a GLP-2 activity [EC50 (nmol)] in experiment [1] of 6.04 nmol. Further, the GLP-1 activity [EC50 (pmol)] in experiment [2] worked out at 94.7 pmol.

These data come from patent US20250154226A1, “LONG-ACTING GLP-1/GLP-2 DUAL AGONIST COMPOUND” (CHENGDU AODA BIOTECHNOLOGY CO., LTD, priority 2022, published 2025).
